According to publication doi:10.1101/2023.11.18.567679 (bioRxiv, 2023):

T1: Tse15 central Rhs domain (residues 335-1395) (Acinetobacter baumannii (strain …, UniProt A0A5K6CSR3 335-1395))
T1 sequence (looked up): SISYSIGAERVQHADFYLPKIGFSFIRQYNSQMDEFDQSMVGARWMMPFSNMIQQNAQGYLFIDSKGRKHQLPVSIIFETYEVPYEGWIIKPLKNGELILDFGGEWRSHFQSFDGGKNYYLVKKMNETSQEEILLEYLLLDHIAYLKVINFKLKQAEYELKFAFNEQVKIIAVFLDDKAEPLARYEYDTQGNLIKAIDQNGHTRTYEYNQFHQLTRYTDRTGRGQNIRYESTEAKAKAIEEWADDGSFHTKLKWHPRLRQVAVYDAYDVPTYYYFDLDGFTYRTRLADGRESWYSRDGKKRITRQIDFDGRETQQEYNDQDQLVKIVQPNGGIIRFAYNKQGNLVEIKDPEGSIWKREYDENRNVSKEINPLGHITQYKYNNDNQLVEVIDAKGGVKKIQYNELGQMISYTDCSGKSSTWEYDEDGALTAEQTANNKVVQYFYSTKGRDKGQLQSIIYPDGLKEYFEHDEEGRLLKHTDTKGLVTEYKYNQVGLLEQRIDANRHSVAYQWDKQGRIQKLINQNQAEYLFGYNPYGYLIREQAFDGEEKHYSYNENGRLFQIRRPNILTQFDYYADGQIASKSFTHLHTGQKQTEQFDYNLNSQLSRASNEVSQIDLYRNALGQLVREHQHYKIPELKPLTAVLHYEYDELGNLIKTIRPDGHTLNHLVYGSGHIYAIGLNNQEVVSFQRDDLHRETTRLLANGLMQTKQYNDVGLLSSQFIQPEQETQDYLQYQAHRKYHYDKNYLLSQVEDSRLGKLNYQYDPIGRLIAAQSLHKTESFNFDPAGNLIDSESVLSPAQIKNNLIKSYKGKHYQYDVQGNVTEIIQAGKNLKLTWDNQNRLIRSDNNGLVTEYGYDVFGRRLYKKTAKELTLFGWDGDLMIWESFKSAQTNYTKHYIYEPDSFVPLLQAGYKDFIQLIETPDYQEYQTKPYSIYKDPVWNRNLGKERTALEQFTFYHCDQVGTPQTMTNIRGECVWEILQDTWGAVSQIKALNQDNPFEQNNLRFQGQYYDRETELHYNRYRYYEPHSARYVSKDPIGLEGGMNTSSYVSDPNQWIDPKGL

B1: Tse15 N-terminal clade domain (residue 1-334) (domain or fragment, UniProt A0A5K6CSR3 1-334, looked up)
chain: MAKENTQQKEIKRQPAVELAVFNLNSVTDVADLQMIASQVQLYLQVCGNTTLEQIKSKANITTVANIFALTGSVLDLMLYATDKKTGDAAVQRGALLAANLIGLFSEPNNEAHARMALRPMFGLMAECLYRENGKIKETDIKRLGLHLNAMIAGDLENFLKETQAKLSSLLISATTLGVTILQSMATPATGINAGITTAAGASAEKRDPKLKFTNWAVPLIDLLGKPSQANLTPKIQPNITSRLQQEATQAIAALSQTLQQQANAGQKYTLAWLLQETLKAIQALENKGNASVPINQTGEYERHTKGDTLEFVSLQADALNAPPCEGADSQSGK
B2: Tse15 toxic C-terminal domain (residues 1396-1590) (domain or fragment, UniProt A0A5K6CSR3 1396-1590, looked up)
chain: NSFNYGEMFGIPASAQSGLAYQGQRNYECYAETGELCKIKVPPLFDYVACSGGGLGIGVGFVKNQWTGEYYISGSKDSLLIPVAKSVAQNKQFSAKDLAGASCVGGNIHNIPSYTKTTMTMGEITNEFVSGASVTVGGGAYGAVANVVVPLVSKSSPVKGTWASELGVGTPGFNVGVSGTVSVDTILDAVKPSKK

Assays:
[1] = target: T1, Tse15 central Rhs domain (residues …); assay: SEC
[2] = target: T1, Tse15 central Rhs domain (residues …); assay: pull-down
[3] = target: B1; assay: pull-down

Row | Binder | binding result [1] | binding result [2] | binding result [3]
1 | B1 | binds | – | –
2 | B2 | – | binds | binds
